The values below come from doi:10.1101/2022.06.01.494241.

The assay concerns the target mLight (rat). The settings on record: scale: % ΔF/Fo.

“[D-Ala^2, N-MePhe^4, Gly-ol]-enkephalin (peptide)” showed a sensor fluorescence response (ΔF/Fo) in HEK293 cells, 500 nM to 100 μM DAMGO of 9.06.
